Assay results reported in patent US10772928B2, “Modulation and detection of a neuronal alternative splicing regulatory network for treatment and diagnosis of neurological disorders” (The Governing Council of the University of Toronto, priority 2014, dated 2020).

Key:
nSR100 [1] = molecular target: T1, nSR100 (Mus musculus, UniProt Q8BKA3); experiment: Regulation by nSR100: microexon inclusion level (PSI) by RNA-Seq in mouse N2A cells depleted of nSR100 (Table 2); assay type: cell-based; settings: YES/NO
T1 construct: host or cells: mouse N2A cells
T1 sequence (Q8BKA3 1-608): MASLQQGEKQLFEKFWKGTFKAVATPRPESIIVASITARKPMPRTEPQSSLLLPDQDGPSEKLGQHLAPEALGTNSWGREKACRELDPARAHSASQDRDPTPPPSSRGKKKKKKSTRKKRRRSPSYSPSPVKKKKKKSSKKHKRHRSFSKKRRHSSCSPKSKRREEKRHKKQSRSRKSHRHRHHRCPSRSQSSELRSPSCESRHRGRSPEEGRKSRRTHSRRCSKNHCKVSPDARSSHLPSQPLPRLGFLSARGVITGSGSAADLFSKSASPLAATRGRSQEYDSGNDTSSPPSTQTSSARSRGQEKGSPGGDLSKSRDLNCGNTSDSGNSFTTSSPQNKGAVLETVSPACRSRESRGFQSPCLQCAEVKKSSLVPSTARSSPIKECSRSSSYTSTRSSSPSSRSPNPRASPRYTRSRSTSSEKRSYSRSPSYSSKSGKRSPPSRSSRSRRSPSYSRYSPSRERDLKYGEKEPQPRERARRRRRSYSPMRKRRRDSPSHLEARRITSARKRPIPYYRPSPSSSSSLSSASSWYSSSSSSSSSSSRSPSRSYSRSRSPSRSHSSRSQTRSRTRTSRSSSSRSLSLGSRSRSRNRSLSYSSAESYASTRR
Text: A-H) Percent of neural-regulated exons within each length class that is affected at 15<|ΔPSI|<25 and |ΔPSI|>25 by (A) RBFOX1 knockdown in human neural precursor cells; (B) MBNL1 and MBNL2 double knockdown in human HeLa cells; (C) ESRP1 knockdown in human PNT2 cells; (D) nSR100/Srrm4 knockdown in mouse N2A cells; (E) Ptbp1 knockdown in mouse N2A cells; (F) Ptbp2 knockout in mouse cortex (P1 stage); (G) Ptbp2 knockout in mouse embryonic brain (18.5 days post-conception); and (H) Rbfox1 knockout. p values correspond to two-sided proportion tests of regulated versus non-regulated events. I) Expression of nSR100 in different isolated brain cell types (Zhang et al., 2014). Error bars indicate SEM. […]
An RNA-Seq analysis pipeline was developed to detect and quantify all AS event classes involving all hypothetically possible splice junctions formed by the usage of annotated and unannotated splice sites, including those that demarcate microexons. […]
A multi-module analysis pipeline was developed that uses RNA-Seq, expressed sequence tag (EST) and cDNA data, as well as gene annotations and evolutionary conservation, to assemble libraries of exon-exon-junctions (EEJs) for subsequent read alignment to detect and quantify AS events in RNA-Seq data. […] Alt3 or Alt5 events were quantified based on the fraction of reads supporting the usage of each alternative splice site. […]

nSR100 [2] = molecular target: T1, nSR100; experiment: AP-MS nSR100 interaction partners from mouse N2A cells (Table 5); assay type: binding; settings: for AvgP (average of the SAINT scores) / MaxP (maximal SAINT score): bait Srrm4; for FoldChange between the prey Avg spectra of the bait and control purifications: bait Srrm4, 0.1 added to prevent division by 0; for AvgSpec (average number of spectra per replicate): bait Srrm4, 2 replicates; for Spectra (number of spectra for the prey in the purification of the bait): AP-MS; for SpecSum: bait Srrm4, sum of spectra over 2 replicates
Text: By applying affinity purification coupled to mass-spectrometry (AP-MS), several interaction nSR100 partner proteins were detected that provide insight into mechanisms of post-translational regulation of nSR100 levels.

[3] = bait Srrm4, biological replicate 1 (first number of the cell)
[4] = bait Srrm4, biological replicate 2 (second number of the cell)

B1: Fip1l1 (protein, UniProt Q9D824 1-581, looked up)
Pre-mRNA 3'-end-processing …: MSAGEVERLVELSGGTGGDEEEEWLYGGPWDVHVHSDLAKDLDENEVERPEEENASANPPSGIEEEAAENGVAKPKVTETEDDSDSDSDDDEDDVHVTIGDIKTGAPQYGSYGTAPVNLNIKAGGRVYGNTGTKVKGVDLDAPGSINGVPLLEVDLDSFEDKPWRKPGADLSDYFNYGFNEDTWKAYCEKQKRIRMGLEVIPVTSTTNKITVQQGRTGNSEKEAALPSTKAEFTSPPSLFKTGLPPSRNSTSSQSQTSTASRKASSSVGKWQDRYGRAESPDLRRLPGAIDVIGQTITISRVEGRRRANENSNIQVLSDRSATEVDNNFSKPPPFFPPGAPPTHLPPPPFLPPPPTVSTAPPLIPPPGIPITVPPPGFPPPPGAPPPSLIPTIESGHSSGYDSRSARAFPYGNVAFPHLTSSAPSWPSLVDTTKQWDYYARREKDRDRDRERDRDRERERDRDRERERTRERERERDHSPTPSVFNSDEERYRYREYAERGYERHRASREKEERHRERRHREKEETRHKSSRSNSRRRHESEEGDSHRRHKHKKSKRSKEGKEAGSEPVPEQESTEAAPAE
Which “Regulation by nSR100” value (nSR100 [1]) does the source give for B1 here?
Its value is “NO (regulation may occur but does not meet a miminal threshold change of PSI≥10)”.

And the “AvgP (average of the SAINT scores)” value (nSR100 [2])?
The value was 1.

And the “MaxP (maximal SAINT score)” value (nSR100 [2])?
The value was 1.

What about the “FoldChange between the prey Avg spectra of the bait and control purifications” value (nSR100 [2]) of the same molecule?
Its value is 90.

What about the “AvgSpec (average number of spectra per replicate)” value (nSR100 [2]) of the same molecule?
The value was 9.

And the “Spectra (number of spectra for the prey in the purification of the bait)” value (nSR100 [2]; [3])?
Its value is 8.

What about the “Spectra (number of spectra for the prey in the purification of the bait)” value (nSR100 [2]; [4]) of the same molecule?
The value was 10.

What about the SpecSum (nSR100 [2]) of the same molecule?
The SpecSum was 18.

B2: Sf3a3 (protein, UniProt Q9D554 1-501, looked up)
Splicing factor 3A subunit 3: METILEQQRRYHEEKERLMDVMAKEMLTKKSTLRDQINSDHRTRAMQDRYMEVSGNLRDLYDDKDGLRKEELNAISGPNEFAEFYNRLKQIKEFHRKHPNEICVPMSVEFEELLKARENPSEEAQNLVEFTDEEGYGRYLDLHDCYLKYINLKASEKLDYITYLSIFDQLFDIPKERKNAEYKRYLEMLLEYLQDYTDRVKPLQDQNELFGKIQTDFEKKWDNGTFPGWPKETSSALTHAGAHLDLSAFSSWEELASLGLDRLKSALLALGLKCGGTLEERAQRLFSTKGKSLESLDTSLFAKNPKSKGTKRDTERNKDIAFLEAQIYEYVEILGEQRQLTHENVQRKQARTGEEREEEEEEQISESESEDEENEIIYNPKNLPLGWDGKPIPYWLYKLHGLNINYNCEICGNYTYRGPKAFQRHFAEWRHAHGMRCLGIPNTAHFANVTQIEDAVSLWAKLKLQKASERWQPDTEEEYEDSSGNVVNKKTYEDLKRQGLL
B2 was tested. Which “AvgP (average of the SAINT scores)” value (nSR100 [2]) did it give?
Its value is 0.99.

What about the “MaxP (maximal SAINT score)” value (nSR100 [2]) of the same molecule?
Its value is 0.99.

What about the “FoldChange between the prey Avg spectra of the bait and control purifications” value (nSR100 [2]) of the same molecule?
Its value is 10.5.

And the “AvgSpec (average number of spectra per replicate)” value (nSR100 [2])?
The value was 10.5.

What about the “Spectra (number of spectra for the prey in the purification of the bait)” value (nSR100 [2]; [3]) of the same molecule?
The value was 11.

And the “Spectra (number of spectra for the prey in the purification of the bait)” value (nSR100 [2]; [4])?
The value was 10.

What about the SpecSum (nSR100 [2]) of the same molecule?
The SpecSum was 21.

B3: Dhx8 (protein, UniProt A2A4P0 1-1244, looked up)
ATP-dependent RNA helicase …: MAVAVAAAGVLMGSEPGPAEELAKLEYLSLVSKVCTELDNHLGINDKDLAEFVISLAEKNTTFDTFKASLVKNGAEFTDSLISNLLRLIQTMRPPAKPSTSKDPVVKPKTEKEKLRELFPVLCQPDNPSARTMLDEEDVKVAVDVLKELEALMPSAAGQEKQRDPEHRDRTKKKKRSRSRDRDRDRDRDRDRDRDRDRDRDKDRERDRDRERDRERDRERDHKRRHRSRSRSHSRTRERTKGKSRYRSRSRSQSPFKDRKDREKYGERNLDRWRDKHVDRPPPEEPAIGDIYNGKVTSIMQFGCFVQLEGLRKRWEGLVHISELRREGRVANVADVVSKGQRVKVKVLSFTGTKTSLSMKDVDQETGEDLNPNRRRNLVGETNEETSMRNPDRPTHLSLVSAPEVEDDSLERKRLTRISDPEKWEIKQMIAANVLSKEEFPDFDEETGILPKVDDEEDEDLEIELVEEEPPFLRGHTKQSMDMSPIKIVKNPDGSLSQAAMMQSALAKERRELKQAQREAEMDSIPMGLNKHWVDPLPDAEGRQIAANMRGIGMMPNDIPEWKKHAFGGNKASYGKKTQMSILEQRESLPIYKLKEQLVQAVHDNQILIVIGETGSGKTTQITQYLAEAGYTSRGKIGCTQPRRVAAMSVAKRVSEEFGCCLGQEVGYTIRFEDCTSPETVIKYMTDGMLLRECLIDPDLTQYAIIMLDEAHERTIHTDVLFGLLKKTVQKRQDMKLIVTSATLDAVKFSQYFYEAPIFTIPGRTYPVEILYTKEPETDYLDASLITVMQIHLTEPPGDILVFLTGQEEIDTACEILYERMKSLGPDVPELIILPVYSALPSEMQTRIFDPAPPGSRKVVIATNIAETSLTIDGIYYVVDPGFVKQKVYNSKTGIDQLVVTPISQAQAKQRAGRAGRTGPGKCYRLYTERAYRDEMLTTNVPEIQRTNLASTVLSLKAMGINDLLSFDFMDAPPMETLITAMEQLYTLGALDDEGLLTRLGRRMAEFPLEPMLCKMLIMSVHLGCSEEMLTIVSMLSVQNVFYRPKDKQALADQKKAKFHQTEGDHLTLLAVYNSWKNNKFSNPWCYENFIQARSLRRAQDIRKQMLGIMDRHKLDVVSCGKSTVRVQKAICSGFFRNAAKKDPQEGYRTLIDQQVVYIHPSSALFNRQPEWVVYHELVLTTKEYMREVTTIDPRWLVEFAPAFFKVSDPTKLSKQKKQQRLEPLYNRYEEPNAWRISRAFRRR
What does the source list for B3?
AvgP (average of the SAINT scores) (nSR100 [2]): 0.99; MaxP (maximal SAINT score) (nSR100 [2]): 1; FoldChange between the prey Avg spectra of the bait and control purifications (nSR100 [2]): 7.33; AvgSpec (average number of spectra per replicate) (nSR100 [2]): 11; Spectra (number of spectra for the prey in the purification of the bait) (nSR100 [2]; [3]): 8; Spectra (number of spectra for the prey in the purification of the bait) (nSR100 [2]; [4]): 14; SpecSum (nSR100 [2]): 22

B4: Eif4a3 (protein, UniProt Q91VC3 1-411, looked up)
Eukaryotic initiation factor …: MAANATMATSGSARKRLLKEEDMTKVEFETSEEVDVTPTFDTMGLREDLLRGIYAYGFEKPSAIQQRAIKQIIKGRDVIAQSQSGTGKTATFSVSVLQCLDIQVRETQALILAPTRELAVQIQKGLLALGDYMNVQCHACIGGTNVGEDIRKLDYGQHVVAGTPGRVFDMIRRRSLRTRAIKMLVLDEADEMLNKGFKEQIYDVYRYLPPATQVVLISATLPHEILEMTNKFMTDPIRILVKRDELTLEGIKQFFVAVEREEWKFDTLCDLYDTLTITQAVIFCNTKRKVDWLTEKMREANFTVSSMHGDMPQKERESIMKEFRSGASRVLISTDVWARGLDVPQVSLIINYDLPNNRELYIHRIGRSGRYGRKGVAINFVKNDDIRILRDIEQYYSTQIDEMPMNVADLI
What does the source list for B4?
AvgP (average of the SAINT scores) (nSR100 [2]): 0.99; MaxP (maximal SAINT score) (nSR100 [2]): 1; FoldChange between the prey Avg spectra of the bait and control purifications (nSR100 [2]): 3.82; AvgSpec (average number of spectra per replicate) (nSR100 [2]): 21; Spectra (number of spectra for the prey in the purification of the bait) (nSR100 [2]; [3]): 18; Spectra (number of spectra for the prey in the purification of the bait) (nSR100 [2]; [4]): 24; SpecSum (nSR100 [2]): 42
